Experiments:
[1] = tested on: human pharyngeal carcinoma cells Detroit-562; assay: Tumor uptake in animal model of human head and neck cancer (orthotopic), ex vivo optical imaging; conditions: ex vivo anterior vs posterior tongue, 24 h after i.v. 3 nmol/mouse, H&N tumor bearing mice, n = 5/group
Procedure: Tumor uptake experiments were performed in an animal model of human head and neck cancer (orthotopic), using Detroit-562 cells, overexpressing in particular integrin receptor αvβ6. Briefly, the human pharyngeal carcinoma cells Detroit-562 (ATCC, CCL-138) were cultured in Eagle's Minimum Essential Medium (EMEM) supplemented with 10% Fetal Bovine Serum (FBS), 2 mM glutamine, 100 IU/mL penicillin, 100 μg/mL streptomycin. Male Balb/c nu/nu mice, 4-6 weeks of age (Charles River Laboratories), underwent orthotopic implantation in the anterior portion of the tongue of about 2.5 million cells suspended in 0.03 mL di EMEM. Mice were housed 4 per cage with food and water ad libitum. Animals were fed with VRF1 (P) sterile diet (Special Diets Services Ltd) up to the end of the acclimation period (5 days). Then, AIN-76a rodent diet irradiated (Research Diets), a special diet that reduces auto-fluorescence, was used up to the end of the experiments. Tumor growth was monitored by longitudinal assessments using a caliper up to the target size of 10-20 mm^3 (7-10 days after cell implantation).
Imaging experiments were performed using the preclinical optical system IVIS Spectrum (Perkin Elmer). Animals were intravenously injected (lateral tail vein) with 3 nmol/mouse, at 24 hours post-administration were euthanized by anesthesia overdose, and the tongues were excised for ex vivo optical imaging. […]

[2] = tested on: human glioblastoma U87MG cells; assay: Tumor uptake in animal model of human glioblastoma (subcutaneous), ex vivo optical imaging; conditions: ex vivo tumor-to-muscle, 24 h after i.v. administration, glioblastoma tumor bearing mice, n = 5/group
Procedure: Tumor uptake experiments were carried out in an animal model of human glioblastoma (subcutanous) overexpressing the integrin receptors, particularly αvβ3. Briefly, human glioblastoma U87MG cells (ATCC, HTB-14) were cultured in Eagle's Minimum Essential Medium (EMEM) supplemented with 10% Fetal Bovine Serum (FBS), 2 mM glutamine, 100 IU/mL penicillin, 100 μg/mL streptomycin. Male Balb/c nu/nu mice, 4-6 weeks of age (Charles River Laboratories), underwent subcutaneous implantation (right flank) of about 10 million cells suspended in 0.1 mL of EMEM. Mice were housed 4 per cage with food and water ad libitum. Animals were fed with VRF1 (P) sterile diet (Special Diets Services Ltd) up to the end of the acclimation period (5 days). Then, AIN-76a rodent diet irradiated (Research Diets), a special diet that reduces auto-fluorescence, was used up to the end of the experiments. Tumor growth was monitored by longitudinal assessments using a caliper up to the target size of 300-600 mm^3 (3-4 weeks after cell implantation). […] Regions of interest (ROIs) were drawn on the excised tumor and healthy muscle tissues to evaluate signal intensity (expressed as Average Radiant Efficiency). The ratio between the fluorescence signal in the tumor and in the muscle (background tissue) was then calculated to assess the contrast.

[3] = molecular target: T1, human recombinant integrin αvβ3 (Homo sapiens, UniProt P05106+P06756); assay: Receptor binding affinity ELISA (Vitronectin-coated plates); conditions: duplicate, read-out: Receptor affinity (IC50, nM ± St. Dev.)
T1 construct: purchased R&D Systems
Procedure: Briefly, 96-well ELISA plates were coated overnight at 4° C. with the extracellular matrix (ECM) protein Vitronectin in carbonate buffer (15 mM Na2CO3, 35 mM NaHCO3, pH 9.6). Each well was then washed with PBS-T-buffer (phosphate-buffered saline/Tween20, 137 mM NaCl, 2.7 mM KCl, 10 mM Na2HPO4, 2 mM KH2PO4, 0.01% Tween20, pH 7.4) and blocked for 1 h at RT with TS-B-buffer (Tris-saline/BSA buffer; 20 mM Tris-HCl, 150 mM NaCl, 1 mM CaCl2, 1 mM MgCl2, 1 mM MnCl2, pH 7.5, 1% BSA). In the meantime, a dilution series of the compound and internal standard was prepared in an extra plate. After washing the assay plate three times with PBS-T, 50 μL of the dilution series were transferred to each well. 50 μL of a solution of human recombinant integrin αvβ3 (R&D Systems, 1 μg/mL) in TS-B-buffer was transferred to the wells and incubated for 1 h. The plate was washed three times with PBS-T buffer, and then primary antibody anti-αvβ3 was added to the plate. After incubation and washing three times with PBS-T, the secondary anti-IgG peroxidase-labeled antibody was added to the plate and incubated for 1 h. After washing the plate three times with PBS-T, the plate was developed by quick addition of 3,3′,5,5′-tetrametylbenzidine (TMB) and incubated for 5 min in the dark. The reaction was stopped with 3 M H2SO4, and the absorbance was measured at 450 nm with a plate reader (Victor3, Perkin Elmer).
The IC50 of the representative Compounds 1, 2 and 4 was tested in duplicate, and the resulting inhibition curves were analyzed using GraphPad Prism version 4.0 for Windows (GraphPad Software). The inflection point defines the IC50 value.

[4] = tested on: human colorectal adenocarcinoma cells HT-29; assay: Tumor uptake in animal model of human colorectal cancer (subcutaneous), ex vivo optical imaging; conditions: ex vivo tumor-to-muscle, 24 h after i.v. administration, colorectal cancer bearing mice, n = 5/group
Procedure: Tumor uptake experiments were performed in an animal model of human colorectal cancer (subcutaneous), using HT-29 cells, expressing low levels of integrin receptors. Briefly, the human colorectal adenocarcinoma cells HT-29 (ATCC, HTB-38) were cultured in McCoy's 5 A medium supplemented with 10% foetal bovine serum, 2 mM glutamine, 100 IU/mL penicillin and 100 μg/mL streptomycin. Male Athymic nude mice, 4-6 weeks of age (Envigo), underwent subcutaneous implantation (right flank) of about 5 million cells suspended in 0.1 mL of serum-free medium. Mice were housed 4 per cage with food and water ad libitum. […] Then, AIN-76a rodent diet irradiated (Research Diets), a special diet that reduces auto-fluorescence, was used up to the end of the experiments. Tumor growth was monitored by longitudinal assessments using a caliper up to the target size of 300-600 mm^3 (3-4 weeks after cell implantation). […]
In vivo imaging was performed under gas anesthesia (Sevofluorane 6-8% in oxygen). […] Regions of interest (ROIs) were drawn on the excised tumor and healthy reference tissue (muscle) to evaluate signal intensity (expressed as Average Radiant Efficiency). The ratio between the fluorescence signal in the tumor and in the muscle (background tissue) was then calculated to assess the tumor-to-background ratio (TBR).

[5] = Optical properties: excitation/emission maxima and absolute fluorescence quantum yield; type: physicochemical
Procedure: A dual-beam UV-VIS spectrophotometer (Lambda 40, Perkin Elmer) was used to determine the absorbance (Abs) of the compounds of the invention. Emission/excitation (Em/Ex) spectra and absolute fluorescence quantum yield (ϕ) measurements were carried out on a spectrofluorometer (FluoroLog-3 1IHR-320, Horiba Jobin Yvon) equipped with an F-3018 integrating sphere accessory. The measurements were performed using an excitation wavelength at maximum absorbance of different dyes, and the sample was excited with a 450 W Xenon Light Source. Detection was performed by photomultiplier tubes (PMT-NIR) cooled detector or by TBX-04 detector. Dye solutions were carefully prepared to have an absorbance lower than 0.1 (optical densities) to minimize re-absorption phenomena.
The compounds of the invention have been characterized in terms of their optical properties in vitro in aqueous medium (i.e., water/PBS pH 7.4) and in a clinical chemistry control serum (Seronorm, Sero SA), mimicking the chemical composition and optical properties of human serum. All dye or dye-conjugate solutions were freshly prepared. ICG and S0456 were used as commercial references.
In particular, the excitation and emission maxima and the absolute fluorescence quantum yield (Φ) of representative compounds of formula (I) and conjugates of formula (II) are shown in Table II.

[6] = molecular target: T2, human serum albumin (HSA) (Homo sapiens, UniProt P02768); assay: Binding affinity to human serum albumin (absorbance peak shift or ultrafiltration method)
T2 construct: purchased Sigma Aldrich A9511
Procedure: An analysis of the binding affinity of the compounds of the invention to human albumin was carried out and the results compared with ICG and […] as a reference. Binding affinity to human serum albumin (HSA; Sigma Aldrich, A9511) was measured using two methods, according to the level of binding affinity of the compounds. The first method, optimal for compounds which strongly interact with HSA, is based on the analysis of the absorbance spectrum peak shift after the incubation of the dye in solutions containing HSA. […] The measure was performed at the maximum absorbance wavelength of the shifted peak. The second method, optimal for compound with low affinity for HSA, is based on measuring the variation of the absorbance of solutions containing the dye and various concentrations of HSA after ultrafiltration. […] In the first method, ΔA/b corresponds to the absorbance measured for each sample, whereas in the second method ΔA/b is obtained subtracting the absorbance of the control sample (dye without HSA) to the absorbance of each other sample.

[7] = tested on: WM-266-4 human melanoma cells; assay: Cell uptake by FACS in presence of human serum; type: cell-based; conditions: WM-266-4 cells; fluorescence intensity in absence of serum = 100%
Procedure: The human melanoma cell line WM-266-4 (ATCC, CRL-1676) was used as in vitro model to assess the cell uptake of representative integrin-binding Compounds 1, 2 and 4, based on the high expression of the integrin receptors, particularly αvβ3, on the membrane of these cells (Capasso et al., PlosOne 2014).
Adherent cells at about 70% confluence were incubated with the Compounds 1 or 3 (1 μM) for 2 h at 37° C. (5% CO2) in presence of Dulbecco's Modified Eagle's Medium (DMEM) supplemented with 10% FBS, 2 mM glutamine, 100 IU/mL penicillin and 100 μg/mL streptomycin. […] Fluorescence Activated Cell Sorting (FACS) was used to detect the fluorescence signal within the cells, as measure of cell uptake. Samples were excited with an Argon laser and the emission detected using a 670 nm longpass filter. Values of fluorescence intensity were obtained from the histogram statistic produced by the instrument software.
The residual internalization was calculated by considering the value of fluorescence intensity in absence of the competitor as 100%.
Furthermore, to assess the effect of biological fluids on the cell uptake, parallel experiments were performed incubating the cells with a compounds of the invention in presence of human serum from male AB plasma (Sigma Aldrich, H4522). The residual internalization was calculated by considering the value of fluorescence intensity in absence of the serum as 100%. […]

[8] = Seronorm (clinical chemistry control serum)

T1 sequence (P06756 31-992 limits assumed): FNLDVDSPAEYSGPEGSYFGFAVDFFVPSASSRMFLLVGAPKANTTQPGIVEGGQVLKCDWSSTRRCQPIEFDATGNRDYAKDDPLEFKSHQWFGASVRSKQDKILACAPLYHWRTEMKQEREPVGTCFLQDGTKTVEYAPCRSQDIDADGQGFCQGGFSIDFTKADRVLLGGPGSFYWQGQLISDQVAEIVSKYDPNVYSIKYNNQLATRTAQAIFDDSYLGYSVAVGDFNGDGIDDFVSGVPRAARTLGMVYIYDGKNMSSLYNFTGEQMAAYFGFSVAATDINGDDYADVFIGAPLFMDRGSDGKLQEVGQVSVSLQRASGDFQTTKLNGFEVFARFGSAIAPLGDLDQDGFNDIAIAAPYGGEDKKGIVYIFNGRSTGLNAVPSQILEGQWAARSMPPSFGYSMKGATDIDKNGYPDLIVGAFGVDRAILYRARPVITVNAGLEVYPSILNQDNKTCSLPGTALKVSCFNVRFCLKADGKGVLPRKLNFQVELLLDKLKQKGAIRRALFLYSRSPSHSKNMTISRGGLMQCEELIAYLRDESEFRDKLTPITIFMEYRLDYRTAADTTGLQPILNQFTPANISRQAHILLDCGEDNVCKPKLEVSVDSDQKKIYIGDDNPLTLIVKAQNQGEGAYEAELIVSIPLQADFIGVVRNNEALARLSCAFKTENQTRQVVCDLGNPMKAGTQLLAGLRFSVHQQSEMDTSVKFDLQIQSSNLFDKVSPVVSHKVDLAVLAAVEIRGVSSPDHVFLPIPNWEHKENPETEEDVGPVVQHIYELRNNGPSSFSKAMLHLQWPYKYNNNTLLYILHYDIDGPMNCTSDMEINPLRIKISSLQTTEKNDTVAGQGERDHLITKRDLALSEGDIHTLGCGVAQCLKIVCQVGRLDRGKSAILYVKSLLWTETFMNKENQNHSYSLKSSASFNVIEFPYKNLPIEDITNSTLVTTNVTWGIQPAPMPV
T1 sequence (P05106 27-718 limits assumed): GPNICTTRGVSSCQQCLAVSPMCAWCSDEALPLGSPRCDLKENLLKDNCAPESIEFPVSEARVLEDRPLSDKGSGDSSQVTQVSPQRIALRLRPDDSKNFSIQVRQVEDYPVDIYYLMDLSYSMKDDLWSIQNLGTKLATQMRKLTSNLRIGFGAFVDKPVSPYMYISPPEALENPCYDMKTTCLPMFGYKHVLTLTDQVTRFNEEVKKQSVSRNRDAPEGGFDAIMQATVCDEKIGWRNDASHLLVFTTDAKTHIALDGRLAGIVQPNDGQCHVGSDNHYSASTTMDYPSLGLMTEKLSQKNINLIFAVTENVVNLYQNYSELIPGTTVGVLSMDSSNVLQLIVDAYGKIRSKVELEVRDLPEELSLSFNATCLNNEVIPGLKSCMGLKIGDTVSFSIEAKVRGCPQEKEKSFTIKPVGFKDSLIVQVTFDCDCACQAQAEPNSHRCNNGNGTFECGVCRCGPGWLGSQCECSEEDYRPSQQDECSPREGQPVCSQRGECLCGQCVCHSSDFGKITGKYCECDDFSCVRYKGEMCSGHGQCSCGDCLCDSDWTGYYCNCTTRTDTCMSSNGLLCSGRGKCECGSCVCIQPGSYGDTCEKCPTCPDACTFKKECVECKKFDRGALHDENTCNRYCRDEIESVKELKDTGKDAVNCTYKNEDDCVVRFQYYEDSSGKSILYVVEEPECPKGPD
T2 sequence (P02768 25-609): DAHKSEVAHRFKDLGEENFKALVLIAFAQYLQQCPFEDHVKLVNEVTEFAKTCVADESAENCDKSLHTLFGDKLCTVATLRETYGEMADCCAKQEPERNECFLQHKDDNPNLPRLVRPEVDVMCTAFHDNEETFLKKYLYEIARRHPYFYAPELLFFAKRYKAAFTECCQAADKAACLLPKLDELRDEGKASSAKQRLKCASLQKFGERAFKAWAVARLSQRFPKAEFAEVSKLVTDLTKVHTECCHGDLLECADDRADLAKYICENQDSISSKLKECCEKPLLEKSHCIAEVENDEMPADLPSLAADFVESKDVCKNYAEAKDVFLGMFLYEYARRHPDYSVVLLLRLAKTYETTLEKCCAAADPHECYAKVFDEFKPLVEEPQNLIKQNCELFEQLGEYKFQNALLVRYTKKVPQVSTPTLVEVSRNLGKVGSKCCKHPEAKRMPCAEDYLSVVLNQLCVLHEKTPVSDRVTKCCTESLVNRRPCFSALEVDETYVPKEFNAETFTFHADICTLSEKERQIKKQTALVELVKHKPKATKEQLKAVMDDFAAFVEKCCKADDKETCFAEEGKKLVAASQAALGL

## CC1(C)C(/C=C/C2=C(c3ccc(CCC(=O)NCCCCC4NC(=O)[C@@H](Cc5ccccc5)NC(=O)[C@H](CC(=O)O)NC(=O)CNC(=O)[C@H](CCCNC(=N)N)NC4=O)cc3)C(=C/C=C3/N(CCCCS(=O)(=O)O)c4ccc(C(=O)NCC(O)C(O)C(O)C(O)CO)cc4C3(C)C)/CCC2)=[N+](CCCCS(=O)(=O)[O-])c2ccc(C(=O)NCC(O)C(O)C(O)C(O)CO)cc21 (some centres unmarked) [Compound 1]
[1]
  Tumor-to-background ratio (mean ± St. Dev): 2.27 ± 0.50
[2]
  Tumor-to-background ratio (mean ± St. Dev): 6.92 ± 0.64
[3]
  IC50: 2.73 ± 0.5 nM
[4]
  Tumor-to-background ratio (mean ± St. Dev): 4.30 ± 1.50
[5]; PBS pH 7.4
  Max Em (emission maximum): 788 nm
  Max Ex (excitation maximum): 771 nm
  Φ (absolute fluorescence quantum yield): 4.4%
[5]; [8]
  Φ (absolute fluorescence quantum yield): 10.9%

## CC1(C)C(/C=C/C2=C(Oc3ccc(S(=O)(=O)O)cc3)C(=C/C=C3/N(CCCCCC(=O)NCCCCC4NC(=O)[C@@H](Cc5ccccc5)NC(=O)[C@H](CC(=O)O)NC(=O)CNC(=O)[C@H](CCCNC(=N)N)NC4=O)c4ccc(C(=O)NCC(O)C(O)C(O)C(O)CO)cc4C3(C)C)/CCC2)=[N+](CCCCS(=O)(=O)[O-])c2ccc(C(=O)NCC(O)C(O)C(O)C(O)CO)cc21 (some centres unmarked) [Compound 2]
[1]
  Tumor-to-background ratio (mean ± St. Dev): 2.26 ± 0.10
[3]
  IC50: 1.64 ± 0.41 nM
[6]
  Kd: 38.2 µM
[7]
  Residual cell uptake in presence of human serum: 90%
[4]
  Tumor-to-background ratio (mean ± St. Dev): 4.20 ± 0.80
[5]; PBS pH 7.4
  Max Em (emission maximum): 805 nm
  Max Ex (excitation maximum): 783 nm
  Φ (absolute fluorescence quantum yield): 6.1%
[5]; [8]
  Φ (absolute fluorescence quantum yield): 7.5%
